Target: CD2 (human (endogenous in primary CD8+ T cells)) (UniProt P06729)
Sequence of UniProt P06729 (P06729 25-351): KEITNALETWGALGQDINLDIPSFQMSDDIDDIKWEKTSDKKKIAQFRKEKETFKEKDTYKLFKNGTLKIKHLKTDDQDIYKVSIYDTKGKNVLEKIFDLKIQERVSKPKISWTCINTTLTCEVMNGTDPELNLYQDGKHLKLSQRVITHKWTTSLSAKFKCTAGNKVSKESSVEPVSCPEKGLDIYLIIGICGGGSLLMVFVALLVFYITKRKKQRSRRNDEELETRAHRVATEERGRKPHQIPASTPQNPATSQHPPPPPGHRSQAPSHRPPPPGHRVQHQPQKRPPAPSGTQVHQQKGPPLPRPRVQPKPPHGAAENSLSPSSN

efficacy (Emax) of cytokine production (TNF-α, IFN-γ, IL-2; ELISA) by c58c61-TCR CD8+ T cell blasts on plate-immobilised pMHC with a titration of coimmobilised CD58, 8 h: > 10 fold
potency (EC50 of pMHC) of cytokine production (TNF-α, IFN-γ, IL-2; ELISA) by c58c61-TCR CD8+ T cell blasts on plate-immobilised pMHC with a titration of coimmobilised CD58, 8 h: 50 fold
Substance: extracellular part of human CD58 (aa 29–213) (from UniProt P19256 29-213) (ligand)

From PMC7477745
